# Values of other authors in PMC7174325.
# pKd: −log10 of the molar value. Read-outs that look alike come from different tables or passages of the source.
# Key:
# BAX (Homo sapiens) = BAX (Homo sapiens) (UniProt Q07812); assay: ITC
# BAK (Homo sapiens) = BAK (Homo sapiens) (UniProt Q16611); assay: ITC
# BAD (Homo sapiens) [1] = biological target: BAD (Homo sapiens) (UniProt Q92934)
# BAD (Homo sapiens) [2] = biological target: BAD (Homo sapiens) (UniProt Q92934); remark: listed apart in the source
# Chain of BCL-w (Q92843 2-193): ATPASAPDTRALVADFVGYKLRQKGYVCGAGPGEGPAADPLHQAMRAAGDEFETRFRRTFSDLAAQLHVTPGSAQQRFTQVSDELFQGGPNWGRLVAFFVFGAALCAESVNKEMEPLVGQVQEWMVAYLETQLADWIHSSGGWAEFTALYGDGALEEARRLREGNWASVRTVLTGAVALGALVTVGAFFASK
# Chain of BAD (Homo sapiens) (Q92934 whole entry): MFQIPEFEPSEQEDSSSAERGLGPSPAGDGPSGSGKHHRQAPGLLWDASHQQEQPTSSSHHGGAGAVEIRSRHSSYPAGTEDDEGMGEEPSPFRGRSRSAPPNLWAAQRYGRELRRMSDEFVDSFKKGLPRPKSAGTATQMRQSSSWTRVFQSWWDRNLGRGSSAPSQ
# Chain of BCL-w monomer (Q92843 2-193): as the sequence (Q92843 2-193) above
# Chain of BCL-w homodimer (Q92843 2-193): as above
# Chain of BAK (Homo sapiens) (Q16611 2-211): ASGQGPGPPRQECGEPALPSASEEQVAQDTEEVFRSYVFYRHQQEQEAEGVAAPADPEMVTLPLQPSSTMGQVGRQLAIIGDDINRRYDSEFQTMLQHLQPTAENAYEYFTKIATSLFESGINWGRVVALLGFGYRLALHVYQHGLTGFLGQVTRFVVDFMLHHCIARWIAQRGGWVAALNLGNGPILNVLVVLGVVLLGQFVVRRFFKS
# Chain of BAX (Homo sapiens) (Q07812 whole entry): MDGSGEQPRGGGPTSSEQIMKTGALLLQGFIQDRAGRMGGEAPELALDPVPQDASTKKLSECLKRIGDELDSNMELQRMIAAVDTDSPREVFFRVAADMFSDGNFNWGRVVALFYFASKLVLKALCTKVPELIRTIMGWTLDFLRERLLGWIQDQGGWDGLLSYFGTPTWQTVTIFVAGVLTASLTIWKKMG
substance,measurement,setting,value
BCL-w (from UniProt Q92843),pKd,BAX (Homo sapiens),7.64
same,pKd,BAK (Homo sapiens),6.94
BCL-w homodimer (from UniProt Q92843),pKd,BAD (Homo sapiens) [1],6.82
BCL-w monomer (from UniProt Q92843),pKd,BAD (Homo sapiens) [2],7.85
